Assay results as given in patent US20040058403A1.

Target: peptide(18mer)-BodipyFL

NlpA-[Dig scFv] (26-10 anti-digoxin/digoxigenin scFv fused to the NlpA anchor) (from UniProt P04846 24-29)
M (mean fluorescence, FL1-Height): 6.78
